{
  "source": "patent US9486519B2",
  "about": "“Use of FLT3 ligand for enhancing immune responses in RNA immunization” (BioNTech AG, priority 2008, dated 2016)",
  "molecules": {"B1": {"name": "Flt3L-IgG4: recombinant human Flt3 ligand prepared as a fusion protein with IgG4, SEQ ID NO: 6, expressed in HEK293 cells (protein)", "chain": "MTVLAPAWSPTTYLLLLLLLSSGLSGTQDCSFQHSPISSDFAVKIRELSDYLLQDYPVTVASNLQDEELCGGLWRLVLAQRWMERLKTVAGSKMQGLLERVNTEIHFVTKCAFQPPPSCLRFVQTNISRLLQETSEQLVALKPWITRQNFSRCLELQCQPDSSTLPPPWSPRPLEATAPTAPQPPRSPPCPSCPAPEFLGGPSVFLFPPKPKDTLMISRTPEVTCVVVDVSQEDPEVQFNWYVDGVEVHNAKTKPREEQFNSTYRVVSVLTVLHQDWLNGKEYKCKVSNKGLPSSIEKTISKAKGQPREPQVYTLPPSQEEMTKNQVSLTCLVKGFYPSDIAVEWESNGQPENNYKTTPPVLDSDGSFFLYSRLTVDKSRWQEGNVFSCSVMHEALHNHYTQKSLSLSPGK", "modifications": "Fusionsprotein"}},
  "key": {"lymph nodes and spleen": {"tested_on": "lymph nodes and spleen", "assay": "Cellularity of lymph nodes and spleen after i.p. Flt3-L", "type": "in vivo, C57Bl/6 mice", "details": "2x, 3x, 5x 10 μg i.p.; 10-12 days after the first injection", "procedure": "C57Bl/6 mice (n=3-9) were administered 10 μg Flt3L intraperitoneally at different timepoints (d1 to d3 or d1, d1, d3 or d0, d3). On day 10 the lymph nodes (LN) and the spleen were removed and the cell count was determined. The data shown represent the average cell count +SEM of the lymph nodes. *: p<0.05 in Tukey's multiple comparison test.\nTo test the effects of application of human Flt3 ligand on the efficiency of RNA-based immunizations, the changes in the cellular composition of lymph nodes and spleen were first investigated in the mouse model. For this, various application schemes (2×, 3×, 5×10 μg) of recombinant Flt3-L were applied intraperitoneally and the cellularity was determined 10-12 days after the first injection. […] This increase could be shown for all relevant subpopulations of the dendritic cells in spleen and lymph nodes (FIG. 2)."}, "[1]": {"tested_on": "SIINFEKL epitope-specific CD8+ T cells", "assay": "Tetramer and intracellular IFNγ measurement after Flt3-L pretreatment and intranodal RNA immunization", "type": "in vivo, C57Bl/6 mice", "details": "dose above 2×10 μg; data not shown"}, "[2]": {"tested_on": "RNA uptake in the lymph nodes", "assay": "Effect of Flt3-L on RNA uptake in lymph nodes, in-vivo bioluminescence", "design": "species or system C57BL/6 mice", "details": "10 μg i.p. day 0 and 3; 20 μg luciferase-RNA intranodally day 10", "procedure": "(f) Effect of Flt3-L on RNA uptake. C57BL/6 mice (n=8) were treated i.p. on day 0 and 3 with 10 μg, Flt3-L, or were not treated in the control group. On day 10 the mice were injected intranodally with 20 μg luciferase-RNA. 24 h later the luciferase signal was measured by in-vivo bioluminescence.\nC57BL/6 mice (n=8) were treated i.p. on day 0 and 3 with 10 μg Flt3-L or were not treated in the control group. On day 10 the mice were injected intranodally with 20 μg luciferase-RNA. 24 h later the luciferase signal was measured by in-vivo bioluminescence. […] The bars give the mean value of all measured values for a group. The experiment is representative for 3 independent experiments. Statistics: Student's t-test."}, "dendritic cells": {"tested_on": "dendritic cells", "assay": "Activation status (CD86, CD80, MHC-II, CD40) of lymph node dendritic cells after Flt3L", "type": "in vivo, C57BL/6 mice", "details": "10 μg day 0 and 3; day 10", "procedure": "In addition, C57BL/6 mice (n=3-7) were administered Flt3L twice (day 0 and 3, each time 10 μg). On day 10 the lymph nodes were removed and the activation status (CD86, CD80, MHC-II, CD40) of the dendritic cells was determined by flow cytometry."}, "[3]": {"tested_on": "cell populations of the murine lymph node", "assay": "Effects of different Flt3L on the cellular composition in lymph nodes", "type": "in vivo, C57BL/6 mice", "details": "0.4 mol i.p. day 0; lymph nodes day 10", "description": "On day 10 the lymph nodes of the mice were removed and characterized by flow cytometry. Dendritic cells (DCs (marker: CD11c^+/NK1.1^−)), CD4^+ helper T cells (marker: CD3^+/CD4^+/CD8^−/NK1.1^−), CD8^+ T cells (marker: CD3^+/CD8^+/CD4^−/NK1.1^−), CD19^+ B cells (marker: CD19^+/CD3^−/NK1.1^−).\nIn this experiment Flt3 ligand (Flt3-IgG4) was compared with commercially available Flt3 preparations with respect to the effect on different cell populations of the murine lymph node. A product recombinantly expressed in bacteria (Peprotech Flt3L; Peprotech, Hamburg, Germany) and a product expressed in human HEK293 cells (Humanzyme Flt3L, Humanzyme; Chicago Ill., U.S.A.) were used as commercially available Flt3 preparations. Human IgG4 (Sigma-Aldrich, Deisenhofen, Germany) served as control.\nOn day 10 both inguinal lymph nodes of the mice were removed, the cell count determined by means of a Neubauer chamber and the cell populations were characterized by flow cytometry."}, "[4]": {"assay": "Half-time of Flt3L-IgG4 in serum, human IgG ELISA", "type": "in vivo, Balb/c mice", "procedure": "At defined time points (prior to administration; 3 h, 24 h, 48 h, 3 d, 5 d, 7 d, 9 d, 14 d, 21 d) serum samples of the mice were preserved. These samples were used in an ELISA assay for quantifying human IgG. The half-time is 2.14 days (=51 hours).\nAt defined time points (prior to administration; 3 h, 24 h, 48 h, 3 d, 5 d, 7 d, 9 d, 14 d, 21 d) serum samples of the mice were preserved. These samples were used in an ELISA assay for quantifying human IgG. The half-time is 1,667 days (=40 hours).\nSerum samples obtained from the mice were preserved at defined time points (prior to administration; 3 h, 24 h, 48 h, 3 d, 5 d, 7 d, 9 d, 14 d, 21d). Human IgG was quantified in these samples by means of an ELISA assay. Due to the fusion of human IgG4 to FIt3L in this construct the Flt3L concentration can be determined by quantifying human IgG in serum of mice."}, "B16 Ova tumors": {"tested_on": "B16 Ova tumors", "assay": "Therapeutic vaccination against B16 Ova tumors, survival", "type": "in vivo, C57BL/6 mice", "procedure": "To examine the synergy of combining Flt3L administration with RNA vaccination, a therapeutic tumor experiment was performed. To this end, 4 groups (n=10) of C57BL/6 mice were formed. All mice received on day 0 a s.c. injection of B16 Ova cells (2×10^5). Hereof a control group was only treated by IgG4 injection (10 μg; d3, d7, d14, d17). […] The Kaplan Meier plot of the survival rate of mice is shown.\nTo investigate the synergy of the combination of Flt3L administration together with RNA vaccination a therapeutic tumor experiment was performed. To this end four groups (n=10) of C57BL/6 mice were formed. All mice received on day 0 a s.c. injection of 2×10^5 B16 Ova tumor cells (Bellone et al., J. Immunol., 2000, 165:2651-2656). Thereof a control group was only treated by IgG4 injection (10 μg; d3, d7, d14, d17)."}},
  "data": [
    {"molecule": "B1", "values": [
      {"measurement": "cellularity in spleen and lymph nodes", "setting": "lymph nodes and spleen", "value": "increase in cellularity in spleen and lymph nodes"},
      {"measurement": "immune response on increase of the Flt3-L dose", "setting": "[1]", "value": "not correlated with a further intensification of the immune response"},
      {"measurement": "RNA uptake in the lymph nodes (in-vivo bioluminescence)", "setting": "[2]", "value": "does not have an inhibitory effect"},
      {"measurement": "maturation of the dendritic cells in the lymph node", "setting": "dendritic cells", "value": "does not lead to maturation of the dendritic cells"},
      {"measurement": "expansion of dendritic cells", "setting": "[3]", "value": "strong similarity"},
      {"measurement": "expansion of the lymphocyte populations", "setting": "[3]", "value": "tended to be strongest"},
      {"measurement": "detectable in serum after injection", "setting": "[4]; 20 μg and 50 μg i.p.", "value": "up to 5 days"},
      {"measurement": "half-life in serum", "setting": "[4]; 20 μg i.p.", "value": 51, "unit": "h"},
      {"measurement": "half-time in serum", "setting": "[4]; 20 μg i.p.", "value": 2.14, "unit": "days"},
      {"measurement": "half-life in serum", "setting": "[4]; 50 μg i.p.", "value": 40, "unit": "h"},
      {"measurement": "stability compared to Flt3L without IgG4 fusion", "setting": "[4]; from serum half-life", "value": "increased stability"},
      {"measurement": "portion of mice surviving in the long term", "setting": "B16 Ova tumors; Flt3L-IgG4 15 μg in combination with intranodal RNA vaccination 20 μg", "value": "about 80%"},
      {"measurement": "survival in the long term", "setting": "B16 Ova tumors; Flt3L-IgG4 15 μg without RNA vaccination", "value": 10, "unit": "%"},
      {"measurement": "therapeutic effect on tumor growth", "setting": "B16 Ova tumors; Flt3L-IgG4 without RNA vaccination", "value": "minimal therapeutic effect on tumor growth"},
      {"measurement": "effect of the combination with intranodal vaccination of RNA", "setting": "B16 Ova tumors; survival", "value": "synergistic effect"}
    ]}
  ]
}
